According to paper doi:10.1101/2022.01.11.475891, “Structural insights as to how iron-loaded siderophores are imported into Mycobacterium tuberculosis by IrtAB” (bioRxiv, 2022):

Target: T1, IrtA, full length (subunit of full-length Mtb IrtAB) (M. tuberculosis H37Rv, UniProt P9WQJ9 1-859)
T1 construct: also called Rv1348
T1 sequence: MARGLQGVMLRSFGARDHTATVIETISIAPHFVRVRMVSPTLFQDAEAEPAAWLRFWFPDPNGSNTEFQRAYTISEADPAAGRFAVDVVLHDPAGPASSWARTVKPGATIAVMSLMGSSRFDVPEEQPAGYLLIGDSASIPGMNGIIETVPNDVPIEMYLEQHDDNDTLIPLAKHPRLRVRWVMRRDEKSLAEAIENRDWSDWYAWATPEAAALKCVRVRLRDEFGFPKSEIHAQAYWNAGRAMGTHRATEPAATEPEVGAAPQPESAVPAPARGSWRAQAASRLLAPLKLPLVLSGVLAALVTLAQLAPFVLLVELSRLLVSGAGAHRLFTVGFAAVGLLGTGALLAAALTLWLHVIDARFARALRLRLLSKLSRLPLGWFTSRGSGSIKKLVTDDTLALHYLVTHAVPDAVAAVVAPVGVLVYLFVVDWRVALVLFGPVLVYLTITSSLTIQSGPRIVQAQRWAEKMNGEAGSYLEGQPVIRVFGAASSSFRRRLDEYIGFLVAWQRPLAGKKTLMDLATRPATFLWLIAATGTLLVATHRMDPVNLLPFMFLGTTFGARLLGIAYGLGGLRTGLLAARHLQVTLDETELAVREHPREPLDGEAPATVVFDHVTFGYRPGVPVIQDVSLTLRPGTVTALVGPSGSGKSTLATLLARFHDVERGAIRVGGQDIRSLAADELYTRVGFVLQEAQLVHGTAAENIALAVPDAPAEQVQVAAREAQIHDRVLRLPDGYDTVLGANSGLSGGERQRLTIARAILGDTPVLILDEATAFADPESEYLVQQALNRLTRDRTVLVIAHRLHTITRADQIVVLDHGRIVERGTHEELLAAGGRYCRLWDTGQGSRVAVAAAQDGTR
Experiment: cryo-EM structure; full-length IrtAB in digitonin, no nucleotide added; 20 mM MES, 150 mM NaCl, pH 6.5; inward-facing
Settings: both partners purified

B1: IrtB with a C-terminal 10x His tag (subunit of Mtb IrtAB) (natural protein)
chain: MIRTWIALVPNDHRARLIGFALLAFCSVVARAVGTVLLVPLMAALFGEAPQRAWLWLGWLSAATVAGWVLDAVTARIGIELGFAVLNHTQHDVADRLPVVRLDWFTAENTATARQAIAATGPELVGLVVNLVTPLTSAILLPAVIALALLPISWQLGVAALAGVPLLLGALWASAAFARRADTAADKANTALTERIIEFARTQQALRAARRVEPARSLVGNALASQHTATMRLLGMQIPGQLLFSIASQLALIVLAGTTAALTITGTLTVPEAIALIVVMVRYLEPFTAVSELAPALESTRATLGRIGSVLTAPVMVAGSGTWRDGAVVPRIEFDDVAFGYDGGSGPVLDGVSFCLQPGTTTAIVGPSGCGKSTILALIAGLHQPTRGRVLIDGTDVATLDARAQQAVCSVVFQHPYLFHGTIRDNVFAADPGASDDQFAQAVRLARVDELIARLPDGANTIVGEAGSALSGGERQRVSIARALLKAAPVLLVDEATSALDAENEAAVVDALAADPRSRTRVIVAHRLASIRHADRVLFVDDGRVVEDGSISELLTAGGRFSQFWRQQHEAAEWQILAE
notes: IrtB (Rv1349) of Mycobacterium tuberculosis H37Rv, TMD and NBD; The same IrtB chain stands in full-length IrtAB and in IrtAB(ΔSID); also called Rv1349
binding result: binds
